Data reported in patent US20250135043A1, “DUAL-TARGETING COMPOUND FOR FIBROBLAST ACTIVATION PROTEIN (FAP) AND INTEGRIN avB3, PREPARATION METHOD THEREFOR AND USE THEREOF” (YANTAI LANNACHENG BIOTECHNOLOGY CO., LTD., priority 2022, published 2025).

Experiments:
[1] = test system: HT1080-FAP tumor-bearing mice; details: mouse, in vivo
Protocol: Then, under anaesthesia with isoflurane, the ^68Ga-FAPI-RGD (V-25) group was subjected to MicroPET imaging after administration for 0-240 min, respectively, and the other groups were subjected to MicroPET imaging after administration for 0-120 min, respectively. In FIG. 53, Part A, Part C and Part E show maximum-density MicroPET projection images of the HT1080-FAP tumor-bearing mice (n=3) at different time points after the intravenous injection of the three groups of mice, respectively, and Part B, Part D and Part F show uptake in various organs or tissues (such as blood, liver, kidney, tumors and muscles) of the three groups of mice at different time points after the injection, respectively, where three uptake amounts in each group correspond to, from left to right, 0.5 h, 1 h and 2 h after the injection, respectively. […] A specific binding property of the ^68Ga-FAPI-RGD (V-25) to integrin αvβ3 and FAP in vivo is proven by a blocking experiment. The ^68Ga-FAPI-RGD (V-25) and C(RGDfK) or FAPI-02 were co-injected into HT1080-FAP tumor-bearing mice, and MicroPET imaging results and organ uptake results are shown in FIG. 54. […]

[2] = test system: tumors of patients (pancreatic cancer, non small cell lung cancer, small cell lung cancer, nasopharyngeal carcinoma); details: human, in vivo, iv
Protocol: In a clinical trial in the real world, a patient with pancreatic cancer (one), a patient with non small cell lung cancer (one), a patient with small cell lung cancer (one) and a patient with nasopharyngeal carcinoma (one) were used as subjects. An intravenous injection dose (1.8-2.2 MBq [0.05-0.06 mCi]/kg) of the ^68Ga-FAPI-RGD (V-25) was calculated based on a body weight of each subject. After intravenous injection was performed for 3 h, data was obtained by a hybrid PET/CT scanner (Discovery MI, GE Health care, Milwaukee, WI, USA). A maximum standard uptake value (SUVmax) was automatically calculated by using a region of interest (ROI) drawn on a transaxial image. The SUVmax value of the ^68Ga-FAPI-RGD (V-25) targeting two targets is higher than that of ^68Ga-FAPI-46 targeting the single target, FAP, in different types of tumors, and the SUVmax value is increased by about 30-50%, proving that the design of targeting two targets can improve the number and utilization efficiency of effective receptors in tumors, thereby improving the uptake in tumors.

[3] = target: T1, integrin αvβ3 (Homo sapiens, UniProt P05106+P06756); assay: Cell binding experiment in U87MG tumor cells
T1 construct: endogenous in cells; host or cells: U87MG tumor cells
T1 sequence (P06756 31-889 limits assumed): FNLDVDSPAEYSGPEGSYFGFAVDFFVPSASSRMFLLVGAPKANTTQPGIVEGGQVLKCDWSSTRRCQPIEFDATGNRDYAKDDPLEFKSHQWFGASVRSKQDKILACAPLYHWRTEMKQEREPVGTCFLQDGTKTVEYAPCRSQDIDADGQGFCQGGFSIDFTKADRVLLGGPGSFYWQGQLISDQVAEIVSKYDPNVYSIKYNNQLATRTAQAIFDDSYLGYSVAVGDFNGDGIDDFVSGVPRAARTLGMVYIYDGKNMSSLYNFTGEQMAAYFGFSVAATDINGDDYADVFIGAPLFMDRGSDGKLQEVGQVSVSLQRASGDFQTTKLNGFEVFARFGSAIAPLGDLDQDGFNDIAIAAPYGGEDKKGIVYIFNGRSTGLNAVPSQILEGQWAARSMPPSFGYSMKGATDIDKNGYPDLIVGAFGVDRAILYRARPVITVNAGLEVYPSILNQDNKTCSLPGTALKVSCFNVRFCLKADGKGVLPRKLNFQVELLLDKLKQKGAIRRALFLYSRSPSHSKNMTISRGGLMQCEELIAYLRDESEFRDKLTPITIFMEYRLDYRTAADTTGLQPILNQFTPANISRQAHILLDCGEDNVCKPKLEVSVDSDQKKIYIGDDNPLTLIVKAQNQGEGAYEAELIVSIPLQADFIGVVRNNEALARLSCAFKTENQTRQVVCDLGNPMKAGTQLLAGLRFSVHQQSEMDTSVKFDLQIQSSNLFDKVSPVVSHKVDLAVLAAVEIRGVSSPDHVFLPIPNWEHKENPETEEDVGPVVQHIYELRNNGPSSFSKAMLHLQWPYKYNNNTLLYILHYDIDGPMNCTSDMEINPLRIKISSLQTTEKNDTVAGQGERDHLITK
T1 sequence (P06756 891-1048 partner limits assumed): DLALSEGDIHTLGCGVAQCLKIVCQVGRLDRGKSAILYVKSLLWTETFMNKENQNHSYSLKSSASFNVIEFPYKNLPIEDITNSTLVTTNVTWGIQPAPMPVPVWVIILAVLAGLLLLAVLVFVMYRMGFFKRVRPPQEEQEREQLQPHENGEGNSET
T1 sequence (P05106 27-788): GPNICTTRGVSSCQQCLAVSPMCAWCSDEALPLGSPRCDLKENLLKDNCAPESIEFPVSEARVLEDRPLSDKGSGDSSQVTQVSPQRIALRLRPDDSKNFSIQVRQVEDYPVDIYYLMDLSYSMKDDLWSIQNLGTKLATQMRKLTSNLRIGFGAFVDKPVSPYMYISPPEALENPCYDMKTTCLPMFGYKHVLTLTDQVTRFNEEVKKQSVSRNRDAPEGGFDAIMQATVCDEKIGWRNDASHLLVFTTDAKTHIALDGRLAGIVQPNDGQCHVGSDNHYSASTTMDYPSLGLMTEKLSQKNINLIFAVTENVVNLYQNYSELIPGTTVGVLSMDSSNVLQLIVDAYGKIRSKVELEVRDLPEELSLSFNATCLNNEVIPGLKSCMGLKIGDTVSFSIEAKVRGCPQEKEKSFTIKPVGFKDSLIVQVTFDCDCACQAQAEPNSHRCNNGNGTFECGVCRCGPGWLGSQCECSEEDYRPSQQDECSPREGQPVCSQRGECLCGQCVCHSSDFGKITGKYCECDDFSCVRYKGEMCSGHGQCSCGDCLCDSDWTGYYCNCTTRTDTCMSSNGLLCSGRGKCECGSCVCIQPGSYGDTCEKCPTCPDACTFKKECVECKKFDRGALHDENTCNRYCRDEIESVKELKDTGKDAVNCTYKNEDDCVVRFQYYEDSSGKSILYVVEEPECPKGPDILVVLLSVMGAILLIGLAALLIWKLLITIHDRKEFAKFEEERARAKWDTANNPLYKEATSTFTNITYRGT
Protocol: A cell binding experiment was carried out in HT1080-FAP and U87MG tumor cells, and test results are shown in Part B and Part C of FIG. 52, respectively.

## N#C[C@@H]1CCCN1C(=O)CNC(=O)c1ccnc2ccc(OCCCN3CCN(C(=O)CCOCCOCCNC(=O)[C@H](CCC(=O)NCCOCCOCCC(=O)NCCCC[C@@H]4NC(=O)[C@@H](Cc5ccccc5)NC(=O)[C@H](CC(=O)O)NC(=O)CNC(=O)[C@H](CCCNC(=N)N)NC4=O)NC(=O)CN4CCN(CC(=O)O)CCN(CC(=O)O)CC4)CC3)cc12 [^68Ga-FAPI-RGD (V-25), metal not drawn]
[1]
  tumor uptake compared with monomers: higher
[2]
  SUVmax value compared with 68Ga-FAPI-46: higher
  increase of SUVmax value over 68Ga-FAPI-46: 30-50%
[3]
  IC50: 18.9 nM
